From patent US20230346885A1 (published 2023) come the findings set out here.

What all share (assay): binding, other
Test [1] concerns the target T1, PIWIL1 peptide on HLA (human).
T1 peptide: SLIQNLFKV

The target in test [2] is T2, PIWIL1 peptide on HLA (human).
T2 peptide: SIAGFVASI

The target of test [3] is T3, RLN1 peptide on HLA (human).
T3 peptide: ALSERQPSL

Test [4] has as its target T4, PIWIL1 peptide on HLA (human).
T4 peptide: SLSNRLYYL

The target in test [5] is T5, SLC45A2 peptide on HLA (human).
T5 peptide: YVTPVLLSV

Test [6] concerns the target T6, SMC1B peptide on HLA (human).
T6 peptide: ALDNTNIGKV

Test [7] deals with T7, XAGE1 peptide on HLA (human).
T7 peptide: KMPEAGEEQPQV

B1: TCR of SEQ ID NOs 503 and 504 (TCR, V domains shown)
Valpha: QKEVEQNSGPLSVPEGAIASLNCTYSDRGSQSFFWYRQYSGKSPELIMFIYSNGDKEDGRFTAQLNKASQYVSLLIRDSQPSDSATYLCAVMGNTDKLIFGTGTRLQVFP
Vbeta: NAGVTQTPKFQVLKTGQSMTLQCAQDMNHEYMSWYRQDPGMGLRLIHYSVGAGITDQGEVPNGYNVSRSTTEDFPLRLLSAAPSQTSVYFCASSYGVGSPLHFGNGTRLTVT
For the molecule B1, the binding result in test [1] was “recognises”.

B2: TCR of SEQ ID NOs 507 and 508 (TCR, V domains shown)
Valpha: QKEVEQNSGPLSVPEGAIASLNCTYSDRGSQSFFWYRQYSGKSPELIMFIYSNGDKEDGRFTAQLNKASQYVSLLIRDSQPSDSATYLCAVKTSYDKVIFGPGTSLSVIP
Vbeta: NAGVTQTPKFQVLKTGQSMTLQCAQDMNHEYMSWYRQDPGMGLRLIHYSVGAGITDQGEVPNGYNVSRSTTEDFPLRLLSAAPSQTSVYFCASSYGAGAFYTFGSGTRLTVV
As to B2, the binding result in test [1] was “recognises”.

B3: TCR of SEQ ID NOs 511 and 512 (TCR, V domains shown)
Valpha: KQEVTQIPVALSVPEGENLVLNCSFTDSAIYNLQWFRQDPGKGLTSLLLIQSSQREQTSGRLNASLDKSSGRSTLYIAASQPGDSATYLCAVSPYNNNDMRFGAGTRLTVKP
Vbeta: NAGVTQTPKFQVLKTGQSMTLLCAQDMNHEYMYWYRQDPGMGLRLIHYSVGEGTTDKGEVPNGYNVSRSTTEDFPLRLLSAAPSQTSVYFCASSFTGDSPLHFGNGTRLTVT
With B3, the binding result in test [2] is recorded as “recognises”.

B4: TCR of SEQ ID NOs 523 and 524 (TCR, V domains shown)
Valpha: QKEVEQNSGPLSVPEGAIASLNCTYSDRGSQSFFWYRQYSGKSPELIMSIYSNGDKEDGRFTAQLNKASQYVSLLIRDSQPSDSATYLCAVNAGGTSYGKLTFGQGTILTVHP
Vbeta: NAGVTQTPKFRVLKTGQSMTLQCAQDMNHNSMYWYRQDPGMGLRLIYYSASEGTTDKGEVPNGYNVSRLNKREFSLRLESAAPSQTSVYFCASSEIDVWYNSPLHFGNGTRLTVT
As for B4, the binding result in test [3] was “recognises”.

B5: TCR of SEQ ID NOs 497 and 498 (TCR, V domains shown)
Valpha: KQEVTQIPAALSVPEGENLVLNCSFTDSAIYNLQWFRQDPGKGLTSLLLIQSSQREQTSGRLNASLDKSSGRSTLYIAASQPGDSATYLCAARYNFNKFYFGSGTKLNVKP
Vbeta: NAGVTQTPKFQVLKTGQSMTLLCAQDMNHEYMYWYRQDPGMGLRLIHYSVGEGTTAKGEVPDGYNVSRSTTEDFPLRLLSAAPSQTSVYFCASSYTPGPSHEQYFGPGTRLTVT
Consider B5, for which, in test [4], the binding result is “recognises”.

B6: TCR of SEQ ID NOs 499 and 500 (TCR, V domains shown)
Valpha: KQEVTQIPAALSVPEGENLVLNCSFTDSAIYNLQWFRQDPGKGLTSLLLIQSSQREQTSGRLNASLDKSSGRSTLYIAASQPGDSATYLCAVIDRAYSGAGSYQLTFGKGTKLSVIP
Vbeta: NAGVTQTPKFRILKIGQSMTLQCTQDMNHNYMYWYRQDPGMGLKLIHYSVGAGITDQGEVPNGYNVSRSTTEDFPLRLLSAAPSQTSVYFCASSLGVSYNEQFFGPGTRLTVL
Turning to B6, in test [4], the binding result is listed as “recognises”.

B7: TCR of SEQ ID NOs 525 and 526 (TCR, V domains shown)
Valpha: QKEVEQNSGPLSVPEGAIASLNCTYSDRGSQSFFWYRQYSGKSPELIMFIYSNGDKEDGRFTAQLNKASQYVSLLIRDSQPSDSATYLCAVGGYQKVTFGTGTKLQVIP
Vbeta: NAGVTQTPKFGILKIGQSMTLQCAQDMNHNYMYWYRQDPGMGLKLIYYSVGAGITDKGEVPNGYNVSRSTTEDFPLRLELAAPSQTSVYFCASRVDSYNEQFFGPGTRLTVL
For the molecule B7, the binding result in test [3] was “recognises”.

B8: TCR of SEQ ID NOs 575 and 576 (TCR, V domains shown)
Valpha: KQEVTQIPAALSVPEGENLVLNCSFTDSAIYNLQWFRQDPGKGLTSLLLIQSSQREQTSGRLNASLDKSSGRSTLYIAASQPGDSATYLCAALSYNTDKLIFGTGTRLQVFP
Vbeta: NAGVTQTPKFQVLKTGQSMTLQCAQDMNHNSMYWYRQDPGMGLRLIYYSASEGTTDKGEVPNGYNVSRLNKREFSLRLESAAPSQTSVYFCASSEAYLAAFFGQGTRLTVV
Regarding B8, the binding result in test [5] is “recognises”.

B9: TCR of SEQ ID NOs 513 and 514 (TCR, V domains shown)
Valpha: KQEVTQIPAALSVPEGENLVLNCSFTDSAIYNLQWFRQDPGKGLTSLLLIQSSQREQTSGRLNASLDKSSGRSTLYIAASQPGDSATYLCAVGGYNKLIFGAGTRLAVHP
Vbeta: NAGVTQTPKFRVLKTGQSMTLLCAQDMNHEYMYWYRQDPGMGLRLIHYSVGAGITDQGEVPNGYNVSRSTTEDFPLRLLSAAPSQTSVYFCASRATGLTEAFFGQGTRLTVV
Take B9: in test [2], the binding result is on record as “recognises”.

B10: TCR of SEQ ID NOs 581 and 582 (TCR, V domains shown)
Valpha: KQEVTQIPAALSVPEGENLVLNCSFTDSAIYNLQWFRQDPGKGLTSLLLIQSSQREQTSGRLNASLDKSSGRSTLYIAASQPGDSATYLCAVFNDYKLSFGAGTTVTVRA
Vbeta: NAGVTQTPKFQVLKTGQSMTLQCAQDMNHEYMSWYRQDPGMGLRLIHYSVGAGITDQGEVPNGYNVSRLNKREFSLRLESAAPSQTSVYFCASSEWFDTEAFFGQGTRLTVV
For B10, the binding result in test [6] was “recognises”.

B11: TCR of SEQ ID NOs 585 and 586 (TCR, V domains shown)
Valpha: KQEVTQIPAALSVPEGENLVLNCSFTDSAIYNLQWFRQDPGKGLTSLLLIQSSQREQTSGRLNASLDKSSGRSTLYIAASQPGDSATYLCAVRGAGGTSYGKLTFGQGTILTVHP
Vbeta: NAGVTQTPKFQVLKTGQSMTLQCAQDMNHNSMYWYRQDPGMGLRLIYYSASEGTTDKGEVPNGYNVSRLNKREFSLRLESAAPSQTSVYFCASSDESYGYYGYTFGSGTRLTVV
As to B11, in test [6], the binding result is given as “recognises”.

B12: TCR of SEQ ID NOs 611 and 612 (TCR, V domains shown)
Valpha: KQEVTQIPAALSVPEGENLVLNCSFTDSAIYNLQWFRQDPGKGLTSLLLIQSSQREQTSGRLNASLDKSSGRSTLYIAASQPGDSATYLCAVRPRGDSSYKLIFGSGTRLLVRP
Vbeta: DGGITQSPKYLFRKEGQNVTLSCEQNLNHDAMYWYRQDPGQGLRLIYYSQIVNDFQKGDIAEGYSVSREKKESFPLTVTSAQKNPTAFYLCASSASGSIYNEQFFGPGTRLTVL
In the case of B12, in test [7], the binding result is “recognises”.
